From publication PMC7019770 come the findings set out here.

For the assay, the target named is PRRSV SD16 virions (PRRSV-2 strain SD16). Description: ELISA-based virus capture assay. Particulars: plates coated with PRA mutant proteins; detection with PRRSV-convalescent swine serum and HRP-labeled goat anti-swine IgG; parent: est. 1.3; read off a plot. On the technique in general: In an ELISA, binding on a coated surface is turned into a signal by an enzyme label.

In the case of “PRA, C-terminal domain of MYH9 (recombinant, wild type) E1670A”, the response stood at 0.95 OD450.
To “PRA, C-terminal domain of MYH9 (recombinant, wild type) I1683A” belongs 0.88 OD450.
To “PRA, C-terminal domain of MYH9 (recombinant, wild type) K1673A” belongs 0.9 OD450; to “PRA, C-terminal domain of MYH9 (recombinant, wild type) E1670A; K1673A; E1679A; I1683A”, 1.1 OD450.
To “PRA, C-terminal domain of MYH9 (recombinant, wild type) E1679A” belongs 0.99 OD450.
